Data set [1] has as its system COCC1CNc2nc(N)[nH]c(=O)c2N1. As to the kind of experiment: Tyrosine hydroxylase cofactor assay. Format: biochemical.
Method: Tyrosine hydroxylase was partially purified through a 25-45% ammonium sulfate fraction. […] The enzyme was assayed by a modification of the method of Nagatsu, T., Levitt, M., and Udenfriend, S. (Anal. Biochem. 9, 122, (1964)) where the Dowex chromatography step was replaced by a charcoal extraction.
Data set [2] relates to C[C@H](O)[C@H](O)[C@H]1CNc2nc(N)[nH]c(=O)c2N1. As to the kind of experiment: purified protein, by the assay type.

From patent US4587340A, “Biopterin analogs” (Burroughs Wellcome Co., priority 1984, dated 1986) come the findings set out here.

Sequence of Tyrosine hydroxylase (Homo sapiens) (chain, as listed by the source): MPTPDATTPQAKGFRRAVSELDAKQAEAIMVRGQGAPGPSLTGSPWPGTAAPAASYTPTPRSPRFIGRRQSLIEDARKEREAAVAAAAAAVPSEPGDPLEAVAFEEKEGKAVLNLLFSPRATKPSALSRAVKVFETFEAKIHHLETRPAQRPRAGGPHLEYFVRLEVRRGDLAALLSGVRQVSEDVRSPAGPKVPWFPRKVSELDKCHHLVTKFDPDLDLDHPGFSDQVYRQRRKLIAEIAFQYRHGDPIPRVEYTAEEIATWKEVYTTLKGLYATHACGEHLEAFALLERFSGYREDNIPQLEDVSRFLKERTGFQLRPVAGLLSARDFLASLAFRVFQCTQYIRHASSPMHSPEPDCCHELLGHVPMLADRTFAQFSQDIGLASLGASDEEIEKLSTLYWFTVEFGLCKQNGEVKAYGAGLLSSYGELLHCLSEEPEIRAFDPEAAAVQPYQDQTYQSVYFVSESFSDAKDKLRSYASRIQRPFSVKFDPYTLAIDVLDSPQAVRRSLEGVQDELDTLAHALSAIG

Usually Km stands for the concentration of substrate that gives half-maximal velocity. With Tyrosine hydroxylase (Homo sapiens), the Km in data set [1] stood at 65 µM; in data set [2], 110 µM.
